Measured values: patent US20030087819

Biological target: T1, synthetic apoA-IMilano peptide 167-R173C-184
T1 chain: SDELRQCLAARLEALKEN

B1: recombinant human LCAT enzyme (Lecithin:Cholesterol Acyltransferase) (protein)
chain: FWLLNVLFPPHTTPKAELSNHTRPVILVPGCLGNQLEAKLDKPDVVNWMCYRKTEDFFTIWLDLNMFLPLGVDCWIDNTRVVYNRSSGLVSNAPGVQIRVPGFGKTYSVEYLDSSKLAGYLHTLVQNLVNNGYVRDETVRAAPYDWRLEPGQQEEYYRKLAGLVEEMHAAYGKPVFLIGHSLGCLHLLYFLLRQPQAWKDRFIDGFISLGAPWGGSIKPMLVLASGDNQGIPIMSSIKLKEEQRITTTSPWMFPSRMAWPEDHVFISTPSFNYTGRDFQRFFADLHFEEGWYMWLQSRDLLAGLPAPGVEVYCLYGVGLPTPRTYIYDHGFPYTDPVGVLYEDGDDTVATRSTELCGLWQGRQPQPVHLLPLHGIQHLNMVFSNLTLEHINAILLGAYRQGPPASPTASPEPPPPE
For B1, the “LCAT activation (esterification of [14C]cholesterol on a proteoliposome substrate), as a percentage of activation obtained with apoA-IWT” value was “failed in this regard”.
